{
  "source": "patent US20090053196A1",
  "about": "(LUDWIG MAXIMILLIANS UNIVERSITAT MUNCHEN, published 2009)",
  "binders": {"B1": {"name": "GST-CHN-1 (enzyme)", "chain": "MSSGAEQHNTNGKKCYMNKRYDDAVDHYSKAIKVNPLPKYYQNRAMCYFQLNNLKMTEEDCKRALELSPNEVKPLYFLGNVFLQSKKYSEAISCLSKALYHNAVITNAPDIENALKRARHQKYEEEESKRIVQDVEFHTYLESLIEKDRQENSENPEELQRADMAKKRLTELTLATQEKRQNREVPEMLCGKITLELMKEPVIVPSGITYDREEIVQHLRRIGHFDPVTRKPLTENEIIPNYALKEVIEKFLDDNPWAKYEPGGMV", "notes": "GST fusion from pGEX-CHN-1, purified from E. coli; also called GST-tagged version of CHN-1; not shown: glutathione S-transferase (GST) encoded by vector pGEX4T1"}, "B2": {"name": "myc-tagged CHN-1 (^mycCHN-1) (enzyme)", "chain": "B1 chain", "notes": "Full-length CHN-1, bacterially expressed from pET-^mycCHN-1; also called C. elegans CHIP ortholog; not shown: N-terminal myc tag introduced 5' of the cDNA by PCR (pET21a)"}, "B3": {"name": "GST-UFD-2 (enzyme, Caenorhabditis elegans, UniProt Q09349 1-984, looked up)", "chain": "MIEDEKAGLQPMDISDASVFFFQADVESKDFLTSLFDCEGKSDDRMLRYADAIIDVQNLNFDVSPQCLQSNIAEIITKFVLLSQDGSRRGLSRSFNFIDPDIIAGCREEDAIEFLLINFVRCHHELGKSGTSNCYKKTLESTRKAVFSVFVMIQRGYLESQLRSQHASLVFTKRLLEDTVSNVFLRTLVEYLASTDECDEDAITETFNPIFGILRSGIICQRFEDNKDEIVRQILRVMNLLLSIRLPSNGPRPLSNLLVNREDFLPTPSEKIQGREFGLMSFLGPFFSYGLESSARRPNHRVFVDCEEDARKYDGSVNTEQKLYFQRMDPIRTMLHQLMLPLASDQGSRNKTLRWIATIISTNDIRTRSHYDPSDVLCDHYMTNFLSVMYMFSEKIDLSKIIVDYPFLPSSLINISKETRLKMDESGAVAFASQFADRPDEYHFSTVCFFLTIAAQRLVIPPLMNQISEYSRHLKELKHKINALKEKLNTVSGFERAEVEKKLNYETEHWKLMSRHLLCVKTQAQDPALMASSMDFVDKQMKFILNLLCDNLDLLGDDSQLPTEVSQMFCALPEYFLEDALDFYIFAISNGMKLLMERNADWISRLTVLFTQYHYIKSPFLVSKLVRVLSSIQPPLWFNVVRLRMAQENLLMCMIKFYSDFEDNGDFYEKFNVRGNIQYMLEKMEEDMFYKGKFMDMARECGAEFIRFVNMVINDATWCIDESLSGLKSIHDVEKKMANKVEWDNTDQEIRNQDLGVYEEAKRKVKGWLGTAKSNLKLLLSITVNSPEPFRTPVLGERLAAMLNHNLSQLIGSKASELKVKDPRSYGWEPREFVSLLISIYLKLNMPAFVKYIAYDERTYSPEFFHNAIECMRKNSIVGFSQLESFEHLAEDVKKEYEAKAELEEEYDDVPEEFKDPIMDAIMVDPVKLPSGHVMDRAVIERHLLSTPNNPFNRAPLSHNELSPDSELKAKIQEWICQKRNSKK", "notes": "GST fusion from pGEX-UFD-2, purified from E. coli; also called immobilized GST-UFD-2; not shown: glutathione S-transferase (GST) encoded by vector pGEX4T1"}},
  "key": {"[1]": {"target": "T1, myc-tagged HSP-1 (^mycHSP-1) (Caenorhabditis elegans, UniProt P09446 1-640)", "T1 construct": "Bacterially expressed from pET-^mycHSP-1; also called C. elegans Hsp70 homolog; Hsp70 ortholog HSP-1; not shown: N-terminal myc tag introduced 5' of the cDNA by PCR (pET21a)", "T1 sequence (P09446 whole entry)": "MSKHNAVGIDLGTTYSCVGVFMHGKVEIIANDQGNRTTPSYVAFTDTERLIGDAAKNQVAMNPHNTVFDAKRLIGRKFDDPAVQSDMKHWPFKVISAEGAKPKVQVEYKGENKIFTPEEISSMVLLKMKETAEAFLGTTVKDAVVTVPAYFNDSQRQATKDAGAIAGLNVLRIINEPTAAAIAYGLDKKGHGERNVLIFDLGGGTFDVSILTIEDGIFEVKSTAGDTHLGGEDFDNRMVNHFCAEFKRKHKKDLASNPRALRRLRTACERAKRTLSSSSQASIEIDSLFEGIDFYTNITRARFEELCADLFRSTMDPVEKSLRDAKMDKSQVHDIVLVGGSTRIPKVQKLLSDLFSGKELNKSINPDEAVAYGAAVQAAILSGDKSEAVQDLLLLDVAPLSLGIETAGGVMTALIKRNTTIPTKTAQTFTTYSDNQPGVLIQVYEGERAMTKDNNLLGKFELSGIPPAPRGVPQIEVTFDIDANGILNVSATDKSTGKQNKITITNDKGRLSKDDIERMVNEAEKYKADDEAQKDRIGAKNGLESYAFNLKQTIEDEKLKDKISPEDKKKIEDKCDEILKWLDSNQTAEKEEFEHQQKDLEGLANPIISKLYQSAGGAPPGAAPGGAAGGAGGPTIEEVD", "experiment": "summary sentence of Example 5 on the earlier binding assays", "description": "(§1) Binding of UNC-45^FLAG, ^mycCHN-1, ^mycCHN-1^ΔU-box, ^mycCHN-1^ΔTPR, ^mycCHN-1^Δ, ^mycUFD-2, ^mycUFD-2^{ΔU-box,} ^mycHSP-1 to GST-UFD-2 or GST-CHN-1 was done in buffer A [10 mM Tris pH 8, 10 mM DTT, Complete protease inhibitors (Boehringer)]+150 mM NaCl at 4° C. for 60 min. Glutathione-Sepharose beads were washed at least five times in buffer A with 0.1% Triton X-100 and 150 mM NaCl and bound proteins were eluted with SDS-PAGE sample buffer. Sonicated lysates from wild-type worms expressing the transgene P_unc-54::unc-45^FLAG were incubated with anti-FLAG M2-agarose beads (Sigma) in 50 mM Tris/HCl (pH 8.0), 100 mM NaCl, 10% glycerol, 1% Triton X-100 and 5 mM PMSF at 4° C. for 3 hours. Samples were precipitated with protein G-agarose beads (Amersham Pharmacia). Immunoprecipitates were washed at least five times in the same lysis buffer, were eluted with SDS-PAGE sample buffer and were separated by SDS gel electrophoresis followed by Western blotting using anti-FLAG M2 monoclonal antibodies (Sigma) or anti-Ubiquitin monoclonal antibodies (Chemicon)."}, "GST": {"target": "T2, GST (UniProt P08515 1-218 = GST)", "T2 construct": "Negative control of the pull-down experiments; also called GST alone; immobilized GST", "T2 sequence (P08515 whole entry)": "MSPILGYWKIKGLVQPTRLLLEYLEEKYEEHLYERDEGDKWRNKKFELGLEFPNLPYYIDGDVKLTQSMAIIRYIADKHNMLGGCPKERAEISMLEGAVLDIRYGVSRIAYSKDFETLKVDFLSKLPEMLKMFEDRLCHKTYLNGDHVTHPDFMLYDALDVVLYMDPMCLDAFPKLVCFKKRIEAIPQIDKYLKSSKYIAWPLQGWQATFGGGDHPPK", "experiment": "GST pull-down with glutathione-Sepharose beads", "description": "(C) Complex of CHN-1, UFD-2 and UNC-45. GST-UFD-2 was incubated with purified FLAG-tagged UNC-45 (UNC-45^FLAG) and myc-tagged CHN-1 (^mycCHN-1) together, ^mycCHN-1 or UNC-45^FLAG alone and pulled down with glutathione-Sepharose beads. GST alone with UNC-45^FLAG and ^mycCHN-1 served as the negative control.\nas §1"}, "[2]": {"target": "T3, FLAG-tagged UNC-45 (UNC-45^FLAG) (Caenorhabditis elegans)", "T3 construct": "Purified as described in Barral 2002; also called ^FLAGUNC-45; purified UNC-45", "experiment": "GST pull-down, equimolar GST-UFD-2 or GST-CHN-1 with identical amounts of purified UNC-45", "description": "(B) In vitro binding of UNC-45 by UFD-2 or CHN-1. Equimolar amounts of GST-UFD-2 and GST-CHN-1 were incubated with the same amount of purified FLAG-tagged UNC-45 (UNC-45^FLAG) and pulled down with glutathione-Sepharose beads. GST alone with UNC-45^FLAG served as the negative control.\nBinding of UNC-45^FLAG, ^mycCHN-1, ^mycCHN-1^ΔU-box, ^mycCHN-1^ΔTPR, ^mycCHN-1^Δ, ^mycUFD-2, ^mycUFD-2^{ΔU-box,} ^mycHSP-1 to GST-UFD-2 or GST-CHN-1 was done in buffer A [10 mM Tris pH 8, 10 mM DTT, Complete protease inhibitors (Boehringer)]+150 mM NaCl at 4° C. for 60 min. Glutathione-Sepharose beads were washed at least five times in buffer A with 0.1% Triton X-100 and 150 mM NaCl and bound proteins were eluted with SDS-PAGE sample buffer. […]\nTo compare their binding efficiencies, pull-down experiments were performed using equimolar amounts of GST-UFD-2 or GST-CHN-1 with identical amounts of purified UNC-45. […] Binary mixtures containing immobilized UFD-2 and either UNC-45 or CHN-1, and a ternary mixture containing all three proteins were set up and the resulting complexes analyzed by SDS-polyacrylamide gel electrophoresis. Approximately equimolar complexes were detected between UFD-2 and both CHN-1 and UNC-45 in the binary mixtures and among the three proteins in the ternary mixture. […]"}},
  "data": [
    {"binder": "B1", "values": [
      {"measurement": "binding result", "setting": "[1]", "result": "binds"}
    ]},
    {"binder": "B2", "values": [
      {"measurement": "binding result", "setting": "GST", "result": "no binding"}
    ]},
    {"binder": "B3", "values": [
      {"measurement": "fold more UNC-45 bound than by GST-CHN-1", "setting": "[2]", "result": "~20", "unit": "fold"}
    ]}
  ]
}
